The target of assay [1] is T1, albumin (human, UniProt P02768 25-609).
T1 construct: Impurity in the Cohn fraction II+III feed, seen on SDS-PAGE of the eluted fractions
As to the kind of experiment: SDS-PAGE of fractions eluted from peptide resin loaded with Cohn fraction II+III.
Protocol: Each peptide resin was packed and swollen as described before. […] Toyopearl AF-rProtein A-650F resin was used as a positive control. As per manufacturer's instructions, the chromatographic protocol comprised binding with PBS, pH 7.4 (at a flow rate of 0.05 mL/min) and elution with 0.1M Glycine buffer pH 2.5 (at a flow rate of 0.4 mL/min). […] Fractions were collected and used for analysis of IgG purity and yield as described below.
The original peptide ligands were employed as positive controls. The crude stock of Cohn II+III paste was diluted in PBS to prepare the feed sample and solid particles were removed by filtration prior to injection into the column. […] Fractions were collected and analyzed by Protein G chromatography and SDS-PAGE (FIG. 3) to determine IgG yield and purity respectively.

Assay [2] addresses T2, Human polyclonal immunoglobulin G (IgG) (human).
T2 construct: also called hIgG; IVIG
As to the kind of experiment: affinity chromatography, peptide resin, 10 mg/mL hIgG in PBS; 1st run, before any enzyme.
Protocol: (§1) One hundred microliters of feed sample was loaded onto the column at a flow rate of 0.05 mL/min (87 cm/h).
(§2) Each adsorbent was subjected to five consecutive chromatographic runs. First, a solution of pure human polyclonal IgG at 10 mg/mL in PBS was injected to determine IgG yield for each adsorbent prior to contact with any enzyme. […] The resin was then contacted with a solution of α-chymotrypsin in Tris buffer pH 8.5 for 10 minutes. The amount of enzyme loaded onto the column was in a mass ratio of 1:100 peptide:enzyme, as done by Verdoliva et al. [35]. After rinsing the resin, a second injection of IgG was then performed to estimate the loss of binding capacity due to the digestion of the peptide ligand by α-chymotrypsin. The resin was then contacted with the second enzyme solution, i.e., trypsin in Tris buffer pH 8.5, at the same peptide:enzyme ratio. A third IgG injection was finally performed to estimate the residual binding capacity of each resin after the second enzyme treatment.

The target in assay [3] is T2, Human polyclonal immunoglobulin G (IgG). As to the kind of experiment: affinity chromatography, peptide resin, 10 mg/mL hIgG in PBS; 3rd run, after alpha-chymotrypsin and then trypsin.
Protocol: as §1, §2
Assay [4] has the same target. As to the kind of experiment: affinity chromatography, peptide resin, 10 mg/mL hIgG in PBS; 2nd run, after resin contacted with alpha-chymotrypsin.
Protocol: as §1, §2
For assay [5] the target is unchanged. Put plainly: affinity chromatography, peptide on Toyopearl resin, pure human IgG load; yield = IgG eluted/IgG loaded, by Protein G chromatography.
Protocol: Each adsorbent thus obtained was packed into a chromatographic column (0.1 mL) and tested for IgG binding. Flowthrough and elution fractions were collected and analyzed by Protein G chromatography to determine IgG yield (Table 2).
Assay [6] has the same target. As to the kind of experiment: affinity chromatography of Cohn fraction II+III of human plasma on peptide resin; binding PBS + 0.25M NaCl, elution acetate pH 5.0; yield by Protein G chromatography.
Protocol: (§3) Toyopearl AF-rProtein A-650F resin was used as a positive control. As per manufacturer's instructions, the chromatographic protocol comprised binding with PBS, pH 7.4 (at a flow rate of 0.05 mL/min) and elution with 0.1M Glycine buffer pH 2.5 (at a flow rate of 0.4 mL/min). […] Fractions were collected and used for analysis of IgG purity and yield as described below.
The original peptide ligands were employed as positive controls. The crude stock of Cohn II+III paste was diluted in PBS to prepare the feed sample and solid particles were removed by filtration prior to injection into the column.
The target is the same in assay [7]. As to the kind of experiment: affinity chromatography of Cohn fraction II+III on peptide resin; binding buffer PBS + 0M NaCl.
For assay [8] the target is unchanged. As to the kind of experiment: affinity chromatography of Cohn fraction II+III on peptide resin; binding buffer PBS + 0.13M NaCl.
Assay [9] shares this target. As to the kind of experiment: affinity chromatography of Cohn fraction II+III on peptide resin; binding buffer PBS + 0.25M NaCl.
Protocol: as §3
The target of assay [10] is T1, albumin. Put plainly: SDS-PAGE of fractions from peptide resin loaded with Cohn fraction II+III at different NaCl.

*1 amine or outer side, *2 acyl side, *3 side chain or, on linkers, in order; H or OH if unused. Where no end group is shown, it is not given here. [ ]: non-standard residue; d: D form. Tyr(Me) = O-methyl-tyrosine, COc1ccc(C[C@H](N[*:1])C(=O)[*:2])cc1; Trp(1-Me) = Cn1cc(C[C@H](N)C(=O)O)c2ccccc21; Phe(4-Me) = Cc1ccc(C[C@H](N)C(=O)O)cc1; Lys(Me2) = CN(C)CCCC[C@H](N)C(=O)O; Cit = NC(=O)NCCC[C@H](N)C(=O)O

T1 sequence (P02768 25-609 limits assumed): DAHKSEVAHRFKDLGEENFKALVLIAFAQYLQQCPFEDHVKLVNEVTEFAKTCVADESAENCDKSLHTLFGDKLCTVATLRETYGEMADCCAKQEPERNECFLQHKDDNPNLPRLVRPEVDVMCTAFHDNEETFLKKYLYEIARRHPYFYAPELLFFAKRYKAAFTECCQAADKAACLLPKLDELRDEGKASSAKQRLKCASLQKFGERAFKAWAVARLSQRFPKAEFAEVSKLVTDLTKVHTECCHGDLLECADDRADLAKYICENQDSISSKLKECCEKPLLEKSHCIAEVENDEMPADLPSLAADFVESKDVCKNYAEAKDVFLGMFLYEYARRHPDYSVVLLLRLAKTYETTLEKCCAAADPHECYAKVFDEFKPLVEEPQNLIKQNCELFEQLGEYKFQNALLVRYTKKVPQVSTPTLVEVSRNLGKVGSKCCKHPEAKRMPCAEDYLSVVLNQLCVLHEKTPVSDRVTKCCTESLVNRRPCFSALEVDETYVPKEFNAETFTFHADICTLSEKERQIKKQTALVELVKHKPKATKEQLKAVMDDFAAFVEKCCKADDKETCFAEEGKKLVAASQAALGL

B1: HYMetFMetKMet2FMetD (peptide)
peptide: H[Tyr(Me)][Phe(4-Me)][Lys(Me2)][Phe(4-Me)]D-{Toyopearl AF‑Amino‑650M resin}
notes: Variant of HYFKFD on Toyopearl resin, used as a negative control; also called HYMetFMetK(Met)2FMetD-Toyopearl
Turning to B1, the binding result with albumin [1] is on record as “binds”. In addition, the IgG yield in assay [2] was 52%; in assay [3], 53%; in assay [4] it was 49%; in assay [5] it was 42%; in assay [6], 48%.

B2: HYFKFD (peptide)
peptide: HYFKFD-{Toyopearl AF‑Amino‑650M resin}
notes: Synthetic hexapeptide on Toyopearl resin; also called HYFKFD-Toyopearl
As for B2, the binding result with albumin [1] is listed as “binds”. Moreover, the IgG yield in assay [2] stood at 78%; in assay [3], 71%; in assay [4], 76%; in assay [5], 78%; in assay [6] it was 54%.

B3: HWRGWV (peptide)
peptide: HWRGWV-{Toyopearl AF‑Amino‑650M resin}
modifications: not fully specified
notes: Synthetic hexapeptide made directly on Toyopearl AF-Amino-650M resin after a first Fmoc-Ala-OH coupling, about 0.12 meq/g; also called HWRGWV-Toyopearl; original peptide ligand
For the molecule B3, the binding result with albumin [1] is listed as “binds”. Further, the IgG yield was 95% in assay [2]; 90% in assay [7]; 85% in assay [8]; 85% in assay [9]; 36% in assay [3]; 72% in assay [4]. The values for the IgG yield in assay [5] and in [6] were 95% and 85%, respectively.

B4: HFRRHL (peptide)
peptide: HFRRHL-{Toyopearl AF‑Amino‑650M resin}
notes: Synthetic hexapeptide on Toyopearl resin; also called HFRRHL-Toyopearl
Consider B4, for which the binding result with albumin [1] is given as “binds”. Further, the IgG yield in assay [2] was 93%; in assay [3] it was 54%; in assay [4], 78%; in assay [5], 93%; in assay [6] it was 91%.

B5: Ac-HWMetCitGWMetV (peptide)
peptide: Ac-H[Trp(1-Me)][Cit]G[Trp(1-Me)]V-{Toyopearl AF‑Amino‑650M resin}
notes: Acetylated HWMetCitGWMetV on Toyopearl resin; also called Ac-HWMetCitGWMetV-Toyopearl
As to B5, in the assay with albumin [10], the binding result is given as “binds”. The entries for the “IgG yield” value in assay [7], in assay [8] and in assay [9] were 91%, 93% and 94%, respectively.

B6: HWMetCitGWMetV (peptide)
peptide: H[Trp(1-Me)][Cit]G[Trp(1-Me)]V-{Toyopearl AF‑Amino‑650M resin}
notes: Variant of HWRGWV on Toyopearl resin; also called HWMetCitGWMetV-Toyopearl
Regarding B6, the binding result with albumin [1] is “binds”. Also, the IgG yield in [2] was 90%; in assay [7], 89%; in assay [8] it was 90%; in assay [9] it was 91%; in assay [3] it was 90%; in [4], 91%. Also, the IgG yield in assay [5] stood at 90%; in [6], 91%.

B7: HFMetCitCitHL (peptide)
peptide: H[Phe(4-Me)][Cit][Cit]HL-{Toyopearl AF‑Amino‑650M resin}
notes: Variant of HFRRHL on Toyopearl resin; also called HFMetCitCitHL-Toyopearl
For the molecule B7, the binding result with albumin [1] is given as “binds”. Also, the IgG yield turned out to be 90% in [2]; 91% in [3]; 92% in assay [4]; 90% in [5]; 89% in [6].

These data come from patent US10266566 (NORTH CAROLINA STATE UNIVERSITY, dated 2019).
